We go through 3 molecules from publication PMC9570017, “Unorthodox PCNA Binding by Chromatin Assembly Factor 1” (International Journal of Molecular Sciences, 2022).

One assay deals with PCNA. Briefly: Crystal model of p150 PIP bound to PCNA. Format: binding, human. The conditions noted are these: synthetic 20-amino acid peptide, crystals at pH 5, resolution 46.2–2.4 Å; only RFF residues modelled; model could not be refined further. Here is the method: In order to better understand the molecular basis of CAF-1 binding to PCNA, we determined the crystal model of a complex between a synthetic peptide encompassing the p150 PIP and PCNA. The crystal model was solved using molecular replacement from a previously published PCNA structure (Table 1 and Materials and Methods). PCNA samples were incubated with a 20-amino acid PIP derived from CAF-1 p150. The PIP used for crystallization, […] (PIP residues in italics), spanned the entire PIP region.
A CAF-1 p150 synthetic peptide with the sequence […] was synthesized at the University of Cambridge in-house protein and nucleic acid facility (PNAC). For use in crystallization trials, the synthetic peptide was dissolved in demineralized water to a concentration of 23 mM. Initial crystallization conditions were further refined and optimized with the help of the PACT suite (Qiagen) and Additive Screen (Hampton Research), which contain multiple reagent libraries that enhance the solubility and crystallization of biological macromolecules. […]
The eluate was subsequently purified with a Superdex™ 200 gel filtration column (GE Healthcare) in gel filtration buffer 20 mM Tris pH 7.5, 150 mM NaCl, 1 mM DTT. The fractions corresponding to PCNA homotrimer were pooled, concentrated with an amicon concentrator with 3 kDa MWCO, quantified using absorbance at A280 nm, and stored at - […]

Assay [1] deals with DNA replication-coupled nucleosome assembly (S100 extract from human HEK-293 cells). The assay can be described thus: Replication-dependent nucleosome assembly assay (SV40 DNA replication, S100 extract). Format: biochemical. The settings on record: increasing amounts of in vitro translated p150 (rCAF-1: positive control), 45 min + 45 min at 37 °C, autoradiography. The source says:
We next sought to compare the activities of CAF-1 p150, wild-type, and the R426D mutant in a replication-coupled chromatin assembly assay. As a first step to performing this assay, we expressed CAF-1 p150 wild-type and the R426D mutant in a rabbit reticulocyte lysate coupled transcription and translation system and labelled the proteins with [^35S]-methionine. […] In the replication coupled chromatin assembly system, an S100 extract from cultured human HEK-293 cells provides all the cellular DNA replication enzymes and histones but lacks CAF-1 p150 [37]. To this extract, a plasmid containing an SV40 origin of replication and the viral replication protein, SV40 large T antigen, were added to support SV40 DNA replication. Radiolabeled dATP was also added to visualize the replication products by autoradiography.
In contrast, when the recombinant CAF1 protein (p150, p60, p48) or the p150 subunit alone are added, they bind to histones in the S100 extract and promote nucleosome assembly coupled with DNA replication. DNA topoisomerase enzyme I, which is present in the S100 extract (and further supplemented in these assays to ensure sufficient levels), removes the positive supercoiling in the linker DNA that connects nucleosomes, leaving negative supercoiling due to DNA wrapping around histone octamers (evident upon subsequent removal of the histones and electrophoresis).
Replication reactions were assembled as previously reported. […]
The reactions were extracted using phenol, chloroform, and isoamyl alcohol (25:24:1) and the DNA was then precipitated with sodium acetate and ethanol. […] The products of replication were analyzed using a native 1.25% agarose gel in 1X TAE buffer with 1 mM MgCl2, without the addition of ethidium bromide. […] The gel was subsequently imaged and analyzed using a phosphor imager (Typhoon FLA 7000) to visualize the replicated DNA.

Where a chain is given by its changes, count along the chain named. Names and notes keep the numbering of the source. “Also recorded” adds a separate entry of the source.

On to IKAEKAEITRFFQKPKTPQA [CAF-1 p150 PIP], for which the “binding mode to PCNA in crystal model” value in the assay with PCNA is recorded as “one CAF-1 p150 PIP bound to each PCNA monomer; also recorded: forms a cation-π interaction with Tyr 250 of PCNA”.

B1: wild-type CAF-1 p150: full-length mouse CAF-1 p150 expressed in rabbit reticulocyte lysate (protein)
chain: MLEEPEAATRTAAAVDCKDRPGFPVKRLIQARLPFKRLNLVPKEKVEEDTSPKAAVESKVPDLQLSLGTFESQCHTGSHVGLSTKLVGGQGPIDSFLRATIKPVPSVVIIDLTENCSDIPDSPEGHSELSPDTAGVVTTVEGAAKQQEHSAAELCLLETPSDITCHMEEEPGSPGDPKRTGDCQAGSLQSCPELTPGSRTCPTKELSSWSKAGDLLFIEKVPVVVLEDILATKPSIASLPMMSLDRSVTSESEILESCPEDDSILSHSSTNSSSPTSSPEGPSTPPEHRGGRSSPSTPACRVAKNFVKGSTEKGRSKLHRDREQQREEKEKLREEIRRAKEEARKKKEEEKELKEKERREKREKDEKEKAEKQRLKEEKRKERQEALEAKLEEKRKKEEEKRLREEEKRLREEEKRIKAEKAEITRFFQKPKTPQAPKTLAGSCGKFAPFEIKEHMVLAPRCRAALDQDLCDQLDQLLQQQSVASTFLSDLKSRLPLRSGPTRVCGHDTDIMNRDVVIVESSKVDGVSERKKFGRMKLLQFSENHRPAYWGTWNKKTAIIRPRNPWAQDKDLLDYEVDSDDEWEEEEPGESLSHSEGDEDDDVGEDEDEDDGFFVPHGYLSEDEGVTEECADPENHKVHQKLKAKEWDELLAKGKRFRVLQPVHVGCVWASEAANCTSSDLKLLQQFTACLLDVASPDEPEPGASRREKRDQHILAQLLPLLHGNVNGSKVIIHEFQEQCRRGLLTLPSPTPHLQMPNLEDAVAVPSKARLKRLISENSAYEKRPNFRMCWYVHPEVLKSFGQECLPVPCQWTYITTMPSAPREDSGSASTEGPGQSTPMLLKRKPAATMCITQFMKKRRYDGQVGSGDMDGFQADTEEDEEDDTDCMIIDVPDVGSDVSEAPIPAPTLCK
modifications: [35S]-methionine labelled
As to B1, in assay [1], the “supercoiling of replicated DNA / nucleosome assembly” value is given as “the replication products were supercoiled”.

B2: R426D mutant: full-length mouse CAF-1 p150 with R426D, expressed in rabbit reticulocyte lysate (protein)
chain: B1 chain with R426D
modifications: [35S]-methionine labelled
As for B2, the results for the “supercoiling of replicated DNA / nucleosome assembly” value in assay [1] and in assay [1] (listed as CAF-1 R426D mutant) were “much less supercoiling was observed” and “deficient in nucleosome assembly”, respectively.
